Results from patent US20090293142A1.

Legend:
[1] = target: invertase activity in the soluble fraction of a leaf extract of a wild type plant; assay: cell-based or functional assay
[2] = target: invertase activity in the cell wall fraction of wild type tobacco leaves; assay: cell-based or functional assay

| invertase activity in mixed-extract assay, percent of the added value of the extracts incubated separately (5 mM sucrose, pH 4.5) [1] [%] | invertase activity in mixed-extract assay, percent of the added value (1 mM sucrose; concentrated cell wall fraction of transgenic leaves) [2] [%] | invertase activity in mixed-extract assay, percent of the added value (5 mM sucrose; concentrated cell wall fraction of infiltrated transgenic leaves) [2] [%] | Substance |
| --- | --- | --- | --- |
| 86 |  |  | Arabidopsis thaliana cell wall invertase inhibitor AtC/VIF2 (At5g46940) |
| 79 |  |  | Arabidopsis thaliana vacuolar invertase inhibitor AtC/VIF1 (At1g47960) (from UniProt F4HWQ8 24-205) |
|  | 58 | 70 | tobacco apoplasmic invertase inhibitor (Greiner et al., 1998) |
